One substance from paper PMC6411835 can be followed below.

The target of this series is T1, Zip2(499-704);Spo16 (Saccharomyces cerevisiae;Saccharomyces cerevisiae) (UniProt P53061+P17122).
T1 sequence 1: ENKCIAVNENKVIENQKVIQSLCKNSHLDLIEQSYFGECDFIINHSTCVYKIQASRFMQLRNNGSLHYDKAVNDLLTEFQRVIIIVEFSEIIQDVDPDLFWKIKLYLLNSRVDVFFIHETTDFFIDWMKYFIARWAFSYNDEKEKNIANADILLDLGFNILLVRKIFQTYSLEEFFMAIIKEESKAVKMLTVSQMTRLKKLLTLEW
T1 sequence 2: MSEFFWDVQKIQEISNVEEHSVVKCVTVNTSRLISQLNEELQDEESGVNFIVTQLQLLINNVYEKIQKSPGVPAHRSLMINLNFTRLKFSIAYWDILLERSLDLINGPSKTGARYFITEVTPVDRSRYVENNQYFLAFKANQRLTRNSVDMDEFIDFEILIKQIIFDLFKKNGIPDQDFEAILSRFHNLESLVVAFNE
Nature of the series: EMSA. (In general: A gel shift assay detects complexes by their altered migration in electrophoresis.)

By Kd is commonly meant the constant that tells how readily two partners part at equilibrium. Read a low Kd as higher affinity. nicked Holliday Junction returned a Kd of 5 µM.
